Test results taken from patent US20260209362A1 (VIB VZW, published 2026).
Residue numbers refer to the chain shown, from its start.

T1: biotinylated recombinant mouse IL-12Rβ2 (mouse, UniProt P97378 24-637, random biotinylated)
T1 construct: Recombinant protein produced in-house, biotinylated; also called mIL-12RB2; mouse IL-12RB2
T1 sequence: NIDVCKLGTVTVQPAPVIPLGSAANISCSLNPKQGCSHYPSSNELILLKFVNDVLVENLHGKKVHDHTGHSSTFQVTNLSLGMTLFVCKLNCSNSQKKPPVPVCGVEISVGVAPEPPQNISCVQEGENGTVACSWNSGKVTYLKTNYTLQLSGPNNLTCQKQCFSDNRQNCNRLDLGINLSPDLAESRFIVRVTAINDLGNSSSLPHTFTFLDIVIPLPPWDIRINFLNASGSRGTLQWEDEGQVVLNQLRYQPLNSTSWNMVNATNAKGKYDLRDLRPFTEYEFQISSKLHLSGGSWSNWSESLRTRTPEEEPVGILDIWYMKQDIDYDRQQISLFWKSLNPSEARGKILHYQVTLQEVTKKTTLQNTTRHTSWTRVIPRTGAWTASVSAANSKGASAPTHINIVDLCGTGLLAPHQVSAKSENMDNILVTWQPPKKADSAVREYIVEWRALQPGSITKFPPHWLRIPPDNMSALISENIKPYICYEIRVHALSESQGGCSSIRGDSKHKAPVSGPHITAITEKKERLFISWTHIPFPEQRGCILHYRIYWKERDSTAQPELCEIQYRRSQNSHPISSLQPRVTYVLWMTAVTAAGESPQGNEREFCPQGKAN

T2: biotinylated recombinant human IL-12Rβ2 (human, UniProt Q99665 24-622, random biotinylated)
T2 construct: Recombinant protein produced in-house, biotinylated; also called hIL-12RB2; human IL-12RB2
T2 sequence: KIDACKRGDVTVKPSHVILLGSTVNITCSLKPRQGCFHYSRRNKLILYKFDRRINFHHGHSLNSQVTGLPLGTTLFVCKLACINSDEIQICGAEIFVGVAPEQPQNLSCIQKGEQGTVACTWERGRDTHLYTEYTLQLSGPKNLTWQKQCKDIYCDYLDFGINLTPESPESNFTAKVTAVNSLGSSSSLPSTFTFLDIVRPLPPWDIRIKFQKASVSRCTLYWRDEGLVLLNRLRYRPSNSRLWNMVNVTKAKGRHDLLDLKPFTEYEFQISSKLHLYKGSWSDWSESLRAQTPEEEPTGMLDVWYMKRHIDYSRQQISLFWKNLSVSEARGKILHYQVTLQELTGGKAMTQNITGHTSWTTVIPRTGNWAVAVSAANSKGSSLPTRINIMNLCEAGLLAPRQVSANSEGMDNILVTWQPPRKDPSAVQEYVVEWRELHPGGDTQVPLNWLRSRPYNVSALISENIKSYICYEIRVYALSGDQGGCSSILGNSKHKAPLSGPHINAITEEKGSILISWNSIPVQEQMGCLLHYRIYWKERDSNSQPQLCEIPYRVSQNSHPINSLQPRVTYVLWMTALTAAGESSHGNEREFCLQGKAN

T3: mouse IL-12Rβ2 expressed on cells (mouse, UniProt P97378 24-874)
T3 construct: HEK293T cells, stably transduced (cDNA NM_008354); also called mIL-12RB2
T3 sequence: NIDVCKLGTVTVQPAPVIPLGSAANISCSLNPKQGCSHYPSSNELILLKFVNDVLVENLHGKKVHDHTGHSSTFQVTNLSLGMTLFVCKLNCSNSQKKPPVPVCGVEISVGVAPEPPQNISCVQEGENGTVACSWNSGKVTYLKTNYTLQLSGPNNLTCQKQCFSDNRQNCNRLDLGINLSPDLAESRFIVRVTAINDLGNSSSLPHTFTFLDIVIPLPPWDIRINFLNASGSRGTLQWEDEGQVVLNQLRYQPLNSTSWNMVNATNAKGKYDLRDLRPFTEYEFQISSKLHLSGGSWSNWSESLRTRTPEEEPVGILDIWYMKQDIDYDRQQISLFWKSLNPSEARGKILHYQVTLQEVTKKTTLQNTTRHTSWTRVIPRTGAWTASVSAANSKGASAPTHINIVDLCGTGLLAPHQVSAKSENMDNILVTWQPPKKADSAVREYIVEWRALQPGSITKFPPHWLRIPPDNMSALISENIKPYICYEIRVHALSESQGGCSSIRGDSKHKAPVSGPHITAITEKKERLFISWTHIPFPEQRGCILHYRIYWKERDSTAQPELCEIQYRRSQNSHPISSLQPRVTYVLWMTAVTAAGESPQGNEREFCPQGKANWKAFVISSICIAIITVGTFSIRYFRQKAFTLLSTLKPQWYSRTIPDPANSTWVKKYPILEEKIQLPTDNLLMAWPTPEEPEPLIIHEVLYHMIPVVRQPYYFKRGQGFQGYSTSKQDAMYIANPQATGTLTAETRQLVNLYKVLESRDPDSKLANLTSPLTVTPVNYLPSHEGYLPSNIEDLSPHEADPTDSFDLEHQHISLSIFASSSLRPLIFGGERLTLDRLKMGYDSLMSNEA

B1: anti-IL-12Rβ2 VHH clone 20467 (VHH, not shown: small tags and cut ends)
VHH: QVQLQESGGGLVQAGGSLRLSCAPSGRTFSTLAMAWFRQAPGKEREVVATISWSGGRTYYADSVKGRFTISRDNAKNTAYLQMNSLRPDDTAVYYCAARGSDYGSYDYWGQGTQVTVSS
notes: tested as periplasmic extract; also called 2CAM3
B2: anti-IL-12Rβ2 VHH clone 20477 (VHH, not shown: small tags and cut ends)
VHH: B1 VHH with L32Y, A35G, P41L, T58I, A61T, S101T, S105A, Y106W, D107E
notes: tested as periplasmic extract; also called 2CAM27
B3: anti-IL-12Rβ2 VHH clone 20555 (VHH, not shown: small tags and cut ends)
VHH: B1 VHH with A35G, D73N, S85N, G100E, S101T, S105A
notes: tested as periplasmic extract; also called 3CAMS81
B4: anti-IL-12Rβ2 VHH clone 20512 (VHH, not shown: small tags and cut ends)
VHH: B1 VHH with A23T, A35G, D62S, G66S, S101T, S105A
notes: tested as periplasmic extract; also called 3CAM57
B5: anti-IL-12Rβ2 VHH clone 20489 (VHH, not shown: small tags and cut ends)
VHH: B1 VHH with A14P, S17P, Y80F, G100E
notes: tested as periplasmic extract; also called 2CAM50
B6: anti-IL-12Rβ2 VHH clone 20486 (VHH, not shown: small tags and cut ends)
VHH: B1 VHH with Y80F, G100E
notes: tested as periplasmic extract; also called 2CAM46
B7: anti-IL-12Rβ2 VHH clone 20473 (VHH, not shown: small tags and cut ends)
VHH: QVQLQESGGGLVQAGDSLRLSCAASGRTFSSYTMGWFRQAPGKEREFVARISQDGGSTYYADSMKGRFTVARDNAKNTVYLQMNSLKPEDTAVYYCAADMIKWGLRVGVDSFKYWGQGTQVTVSS
notes: tested as periplasmic extract; also called 2CAM14
B8: anti-IL-12Rβ2 VHH clone 3CRH83 (VHH, not shown: small tags and cut ends)
VHH: QVQLQESGGGLVQAGGSLKLSCAASGNTFSINAMAWYRQAPGQELELVAAISDVGNTIYADSMKGRFTISRGNADNTVYLQMNSLKPEDTATYYCNAGTFYTSPGDSYYRGYDFWGQGTQVTVSS
notes: tested as periplasmic extract
B9: anti-IL-12Rβ2 VHH clone 2CRM83 (VHH, not shown: small tags and cut ends)
VHH: QVQLQESGGGLVQPGGSLRLSCAASGFTFSAYAMSWVRQAPGKGLEWVSSISSTGTNPNYADSVKGRFTISRDNAKNTLYLQMNSLKPEDTAVYYCAEAYRNYSPPGQGTQVTVSS
notes: tested as periplasmic extract; also called 20451
B10: anti-IL-12Rβ2 VHH clone 2CRM40 (VHH, not shown: small tags and cut ends)
VHH: QVQLQESGGGLVQTGGSLRLSCAASGRTYAMAWFRQAPGKEREFAAVIIGGDRTYYANSVKDRFTISRDNAKETVYLQMNNLKPEDTAVYYCAANRRLYNSGRGYSQSEYEYWGQGTQVTVSS
notes: tested as periplasmic extract; also called 20448
B11: anti-IL-12Rβ2 VHH clone 3CRM95 (VHH, not shown: small tags and cut ends)
VHH: QVQLQESGGGLVQAGDFLRLSCVFSGGTFGDYSMGWFRQAPGKEREFVAAIRWSGDSTQYAEAVKGRFTISRDNAKSTVYLQMSSLKPEDTAVYYCAADPSYYIGPNHTPSRYRDWGQGTQVTVSS
notes: tested as periplasmic extract; also called 20465
B12: anti-IL-12Rβ2 VHH clone 2CRM42 (VHH, not shown: small tags and cut ends)
VHH: QVQLQESGGGLVQPGESLRLSCQASGRTFSNYRMGWFRQAPGKEREFVAGINWDGGHTYYTDSVKGRFTISRDNAKNTVYLQMNSLKPEDTAVYQCAVRVREYGSSRYEDQFDYWGQGTQVTVSS
notes: tested as periplasmic extract; also called 20449
B13: anti-IL-12Rβ2 VHH clone 2CAM18 (VHH)
VHH: QVQLQESGGGLVQVGDSLKLSCVASGTTFSTHVMAWYRQAPGKQREWVASIDSAGTTNYKDAVKGRFTISRDNVKRTVYLQMNNLKPEDSAVYLCSIPSRNAWGQGTQVTVSS
notes: tested as periplasmic extract; also called 20475
B14: anti-IL-12Rβ2 VHH clone 20530 (VHH, not shown: small tags and cut ends)
VHH: QVQLQESGGGLVQAGDSLRLSCAASGRTFSNYNMGWLRQAPGKEREFVTGISSAGSWIGDITSYADSVKGRFTISRDNAKNILYLQMNSLKPEDTAVYYCAAAYHGSRYYVGSTANEYTTWGQGTQVTVSS
notes: tested as periplasmic extract; also called 2CAMS7
B15: anti-IL-12Rβ2 VHH clone 3CRM45 (VHH, not shown: small tags and cut ends)
VHH: QVQLQESGGGLVQAGGSLRLSCTASGSIFAIDDMYWYRQAPGKEREFVAYITATNSANYLDSVNGRFTISRDNAKNSVYLQMNSLKPEDTAVYYCNAKQIVGFQIDEYWGQGTQVTVSS
notes: tested as periplasmic extract; also called 20458
B16: anti-IL-12Rβ2 VHH clone 20476 (VHH, not shown: small tags and cut ends)
VHH: QVQLQESGGGSVQAGGSLRLSCAVFGLSFKDYSMSWFRQAPGKEREFVAGISSGGSWIGDITSYADSVKGRFTISRDNAKNMIYLQMNSLKPDDTGVYYCAAASYGTRYYVGSTANEYTTWGQGTQVTVSS
notes: tested as periplasmic extract; also called 2CAM20
B17: anti-IL-12Rβ2 VHH clone 20533 (VHH, not shown: small tags and cut ends)
VHH: QVQLQESGGGLVQAGGSLTLSCTASGRTFSSYTTGWFRQAPGKEREFVAGISSGGSWIGDITSYADSVKGRFTISRDNAKNMIYLQMNSLKPDDTGVYYCAAASYGTRYYVGSTANEYTTWGQGTQVTVSS
notes: tested as periplasmic extract; also called 2CAMS26
B18: anti-IL-12Rβ2 VHH clone 20506 (VHH, not shown: small tags and cut ends)
VHH: QVQLQESGGGLVQVGGSLRLSCAPSGRTFSTYAMGWFRQALGKEREVVATISWSGGRIYYTDSVKGRFTISRDNAKNTAYLQMNSLRPDDADVYYCATRGTDYGAWEYWGQGTQVTVSS
notes: tested as periplasmic extract; also called 3CAM6
B19: anti-IL-12Rβ2 VHH clone 2CRM28 (VHH, not shown: small tags and cut ends)
VHH: QVQLQESGGGLVQPGGSLRLSCAASGRAWNEYNMGWFRQAPGKEREFVALIWWSSGNTYYADSVKGRFTISRDKVKNTVYLQMNSLKPEDTAVYYCAAGPTFNKYEYWGQGTQVTVSS
notes: tested as periplasmic extract

Tests used:
[1] = target: T1, biotinylated recombinant mouse IL-12Rβ2; assay: ELISA, periplasmic extract on biotinylated mIL-12Rβ2, signal over control wells
[2] = target: T2, biotinylated recombinant human IL-12Rβ2; assay: ELISA, periplasmic extract on biotinylated hIL-12Rβ2, signal over control wells
[3] = target: T3, mouse IL-12Rβ2 expressed on cells; assay: flow cytometry, P.E. VHH on HEK293T cells stably expressing mIL-12RB2

Binder	ELISA binding mIL-12RB2/control [1]	ELISA binding hIL-12RB2/control [2]	% cells bound [3]	dMFI [3]
B1	14.2 ratio	1.04 ratio		
B2	20.9 ratio	1.02 ratio		
B3	9.41 ratio	1.06 ratio		
B4	47.4 ratio	1.31 ratio		
B5	7.88 ratio	0.995 ratio		
B6	6.85 ratio	0.973 ratio		
B7	36.3 ratio	0.971 ratio		
B8			3.47%	21
B9			24.9%	122
B10			32.8%	166
B11			6.74%	51
B12			2.93%	22
B13			3.19%	13.6
B14	3.8 ratio	0.847 ratio		
B15			18.3%	110
B16	7.26 ratio	0.956 ratio		
B17	3.96 ratio	0.994 ratio		
B18	19.9 ratio	0.97 ratio		
B19			19.5%	100
